Reference: the supplement of paper PMC10724198
± gives the standard deviation of the averaged measurements.

How the values were obtained:
[1] = system: Saccharomyces cerevisiae; test: protein stability index of tFT-peptide fusion (C-terminal peptide) (PSI (0-1 scale)); higher = more stable (slower turnover); conditions: genetic background: wild type; temperature: 30 C
[2] = system: Saccharomyces cerevisiae; test: as above
Experimental: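 MPS profiling in S. cerevisiae of the tFT-X12 degron library: putative degron peptides plus stable controls, 12 aa, fused to the C-terminus of a sfGFP-mCherry timer. Cells are FACS-sorted into 8 mCherry/sfGFP bins and deep-sequenced. PSI runs from 0 (unstable) to 1 (stable). Backgrounds are wild type, das1Δ and doa10Δ at 30 °C, and wild type, das1Δ, cdc34-1 and cdc53-1 at 37 °C; 2-3 technical replicates each.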

[3] = genetic background: cdc34-1, temperature: 37 C
[4] = genetic background: cdc53-1, temperature: 37 C
[5] = genetic background: das1 deletion, temperature: 30 C
[6] = genetic background: das1 deletion, temperature: 37 C
[7] = genetic background: doa10 deletion, temperature: 30 C
[8] = genetic background: wild type, temperature: 30 C
[9] = genetic background: wild type, temperature: 37 C
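Also: PSI is a weighted mean of sequencing reads over stability bins, variants kept only with over 10 reads, mCherry proximal and sfGFP distal, peptide attached via GGGS linker.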

Sequence	protein stability index [1]	protein stability index [2, 3]	protein stability index [2, 4]	protein stability index [2, 5]	protein stability index [2, 6]	protein stability index [2, 7]	protein stability index [2, 8]	protein stability index [2, 9]
VVCFGCLAFFLG	0.497 ± 0.0057	0.579 ± 0.0076	0.613 ± 0.011	0.461 ± 0.021	0.624 ± 0.044	0.412 ± 0.043	0.409 ± 0.028	0.533 ± 0.027
VVFILLFFVFCR	0.294 ± 0.019	0.253 ± 0.027	0.271 ± 0.016	0.24 ± 0.031	0.371 ± 0.0061	0.296 ± 0.013	0.25 ± 0.021	0.314 ± 0.022
VVGITIMVFIIT	0.333 ± 0.069	0.138 ± 0.0028	0.195 ± 0.065	0.184 ± 0.045	0.312 ± 0.0043	0.15 ± 0.018	0.185 ± 0.027	0.326 ± 0.046
VVIGAVLFVVVR	0.29 ± 0.012	0.0736 ± 0.0063	0.21 ± 0.015	0.157 ± 0.028	0.291 ± 0.0065	0.12 ± 0.0087	0.134 ± 0.035	0.25 ± 0.005
VVIWGMLLCGLG	0.44 ± 0.029	0.447 ± 0.0096	0.502 ± 0.009	0.353 ± 0.029	0.539 ± 0.026	0.326 ± 0.015	0.348 ± 0.018	0.487 ± 0.016
VVTICVASWSGL	0.42 ± 0.0091	0.521 ± 0.038	0.573 ± 0.011	0.352 ± 0.017	0.54018 ± 4.7e-05	0.362 ± 0.029	0.36 ± 0.027	0.532 ± 0.012
VVTVCIIRLAWG	0.367 ± 0.036	0.219 ± 0.0046	0.315 ± 0.056	0.215 ± 0.025	0.386 ± 0.014	0.189 ± 0.013	0.225 ± 0.018	0.342 ± 0.019
VVVLRRVIEVMQ	0.342 ± 0.0062	0.327 ± 0.015	0.37 ± 0.025	0.256 ± 0.03	0.448 ± 0.013	0.199 ± 0.0065	0.253 ± 0.027	0.413 ± 0.012
VVVRFCLGICFC	0.388 ± 0.011	0.36066 ± 0.00017	0.408 ± 0.013	0.301 ± 0.022	0.438 ± 0.021	0.265 ± 0.0087	0.288 ± 0.017	0.41 ± 0.012
VWAWAVVVFVVL	0.241 ± 0.009	0.196 ± 0.054	0.343 ± 0.0075	0.205 ± 0.02	0.379 ± 0.017	0.171 ± 0.01	0.2 ± 0.035	0.385 ± 0.046
VWEKGVCGRMVG	0.703 ± 0.0081	0.676 ± 0.015	0.7689 ± 0.0024	0.652 ± 0.021	0.744 ± 0.037	0.639 ± 0.012	0.6609 ± 0.0066	0.7276 ± 0.0072
VWSFFTSFIRYI	0.169 ± 0.028	0.5614 ± 0.0036	0.647 ± 0.018	0.6542 ± 0.0065	0.752 ± 0.041	0.106 ± 0.0018	0.109 ± 0.022	0.114 ± 0.0081
VWVISLCIGGGG	0.312 ± 0.013	0.297 ± 0.0044	0.369 ± 0.015	0.24 ± 0.028	0.405 ± 0.011	0.213 ± 0.025	0.225 ± 0.021	0.3796 ± 0.0035
VWVLLCKYVILL	0.218 ± 0.0091	0.228 ± 0.034	0.3521 ± 0.0031	0.237 ± 0.036	0.457 ± 0.0046	0.139 ± 0.021	0.145 ± 0.014	0.268 ± 0.023
VWWGVGVWLLVG	0.147 ± 0.04	0.104 ± 0.025	0.176 ± 0.02	0.242 ± 0.015	0.369 ± 0.011	0.0694 ± 0.016	0.0673 ± 0.018	0.0755 ± 0.036
VYVVCFRLGCWV	0.297 ± 0.036	0.222 ± 0.0066	0.321 ± 0.013	0.199 ± 0.035	0.39 ± 0.0064	0.172 ± 0.0025	0.2 ± 0.022	0.371 ± 0.0082
WAFRLWWFFCLV	0.375 ± 0.034	0.402 ± 0.048	0.452 ± 0.02	0.437 ± 0.022	0.579 ± 0.067	0.277 ± 0.01	0.257 ± 0.015	0.273 ± 0.0095
WALPRILFLRLT	0.169 ± 0.028	0.118 ± 0.074	0.157 ± 0.016	0.359 ± 0.043	0.415 ± 0.0039	0.103 ± 0.00013	0.0657 ± 0.0088	0.0911 ± 0.021
WDSCVGRRGIVA	0.4869 ± 0.0015	0.559 ± 0.025	0.63 ± 0.021	0.402 ± 0.035	0.62 ± 0.025	0.388 ± 0.013	0.42 ± 0.021	0.6038 ± 0.0016
WFGGVRVPRHVV	0.455 ± 0.032	0.651 ± 0.034	0.709 ± 0.027	0.668 ± 0.018	0.7484 ± 0.0044	0.394 ± 0.024	0.448 ± 0.018	0.645 ± 0.026

Sequence	protein stability index [1]	protein stability index [2, 3]	protein stability index [2, 4]	protein stability index [2, 5]	protein stability index [2, 6]	protein stability index [2, 7]	protein stability index [2, 8]	protein stability index [2, 9]
WFLWWCVCLFVF	0.307 ± 0.0073	0.312 ± 0.015	0.314 ± 0.03	0.304 ± 0.023	0.403 ± 0.018	0.2527 ± 0.00072	0.255 ± 0.012	0.299 ± 0.0032
WFWTFIWLIMDD	0.439 ± 0.0064	0.435 ± 0.049	0.501 ± 0.044	0.388 ± 0.016	0.521 ± 0.025	0.399 ± 0.027	0.41 ± 0.039	0.504 ± 0.043
WGFLRVMVDIEL	0.252 ± 0.016	0.146 ± 0.014	0.223 ± 0.1	0.198 ± 0.024	0.32581 ± 9.3e-05	0.164 ± 0.0075	0.188 ± 0.023	0.303 ± 0.017
WGRTIGATFTGR	0.595 ± 0.15	0.698 ± 0.029	0.779 ± 0.0021	0.644 ± 0.024	0.748 ± 0.0085	0.669 ± 0.01	0.685 ± 0.013	0.746 ± 0.019
WILSIVVWGKRV	0.188 ± 0.068	0.2245 ± 0.0016	0.363 ± 0.068	0.231 ± 0.025	0.433 ± 0.026	0.0761 ± 0.025	0.114 ± 0.017	0.209 ± 0.019
WMSVKLLTLRLC	0.199 ± 0.0094	0.302 ± 0.091	0.357 ± 0.014	0.438 ± 0.04	0.551 ± 0.019	0.108 ± 0.031	0.105 ± 0.017	0.124 ± 0.0049
WPRLSHIASFLA	0.459 ± 0.025	0.675 ± 0.039	0.724 ± 0.038	0.682 ± 0.021	0.729 ± 0.01	0.26889 ± 7.6e-05	0.326 ± 0.021	0.509 ± 0.0095
WRFFLLLFFFGF	0.465 ± 0.026	0.493 ± 0.0066	0.536 ± 0.024	0.44 ± 0.04	0.601 ± 0.045	0.425 ± 0.0095	0.428 ± 0.024	0.531 ± 0.012
WRIDVTIVCLGY	0.3 ± 0.03	0.157 ± 0.03	0.256 ± 0.042	0.19 ± 0.033	0.3084 ± 0.0029	0.169 ± 0.01	0.202 ± 0.029	0.294 ± 0.019
WSCGRVWQRFCD	0.7065 ± 0.0045	0.675 ± 0.019	0.74 ± 0.01	0.674 ± 0.018	0.718 ± 0.039	0.678 ± 0.018	0.631 ± 0.014	0.711 ± 0.016
WSSAHVAWCYTT	0.304 ± 0.013	0.619 ± 0.026	0.723 ± 0.021	0.5991 ± 0.0031	0.7298 ± 0.0027	0.1926 ± 0.00045	0.217 ± 0.022	0.42 ± 0.0059
WTILTVMFCSYI	0.275 ± 0.026	0.312 ± 0.011	0.396 ± 0.014	0.276 ± 0.026	0.418 ± 0.031	0.282 ± 0.0044	0.261 ± 0.022	0.377 ± 0.019
WVDVAGIVAVAG	0.522 ± 0.036	0.526 ± 0.021	0.55 ± 0.022	0.421 ± 0.026	0.5809 ± 0.0037	0.387 ± 0.0085	0.419 ± 0.016	0.5495 ± 0.003
WWGIVIVGGLGC	0.489 ± 0.051	0.526 ± 0.0069	0.566 ± 0.019	0.423 ± 0.019	0.5691 ± 0.00075	0.384 ± 0.02	0.404 ± 0.011	0.564 ± 0.024
YAFTCFLLVVAP	0.237 ± 0.013	0.172 ± 0.0073	0.23 ± 0.011	0.167 ± 0.021	0.302 ± 0.011	0.1642 ± 0.0014	0.16 ± 0.015	0.259 ± 0.022
YFFGWSVSLLIL	0.184 ± 0.019	0.133 ± 0.014	0.251 ± 0.039	0.192 ± 0.035	0.322 ± 0.0091	0.108 ± 0.015	0.124 ± 0.021	0.2397 ± 0.0019
YFLAMFIISGGV	0.478 ± 0.073	0.371 ± 0.032	0.435 ± 0.032	0.28 ± 0.034	0.4798 ± 0.0021	0.248 ± 0.011	0.263 ± 0.042	0.443 ± 0.031
YILPTPTVISLA	0.337 ± 0.029	0.262 ± 0.025	0.271 ± 0.006	0.249 ± 0.034	0.3667 ± 0.0033	0.211 ± 0.0069	0.256 ± 0.021	0.326 ± 0.01
YLGPHLRWARCV	0.254 ± 0.015	0.495 ± 0.018	0.715 ± 0.02	0.662 ± 0.027	0.768 ± 0.025	0.1228 ± 0.00053	0.125 ± 0.016	0.183 ± 0.033
